Measurements reported in patent US20220145298.

How the values were obtained:
[1] = tested on: TnsA(wt)BC + TniQ-Cascade transposition system (Aeromonas salmonicida); test: cell_activity; conditions: wild-type TnsA; native array and native target; no detectable transposition
[2] = tested on: TnsA(A125D)BC + TniQ-Cascade transposition system (Aeromonas salmonicida); test: cell_activity; conditions: native array, native A.s. target on F plasmid; transposition in E. coli, mate-out; TACC PAM

## AGGACUGGAAGAAAUCAUCCAAGUUGGGGACU / TCAGGACCGGAAGGTAGCAGCCAAGGCGGGGGACTCGAGTGCCGGGATGTGGCTGATGGGGCCACCAC / GTGGTGGCCCCATCAGCCACATCCCGGCACTCGAGTCCCCCGCCTTGGCTGCTACCTTCCGGTCCTGA [ffs wild-type guide (10 mismatches) ; ffs target]
[1]
  activity: 0%
[2]
  activity: 0.0188%
